Reference: PMC11274412, “Characterization of Receptor Binding Affinity for Vascular Endothelial Growth Factor with Interferometric Imaging Sensor” (Biosensors, 2024)

Assays:
[1] = biological target: T1, Aflibercept (Eylea); assay: Interferometric Reflectance Imaging Sensor (IRIS); equilibrium IRIS signal on drug spots against VEGF concentration, fitted with the Langmuir isotherm; details: both partners purified
T1 chain: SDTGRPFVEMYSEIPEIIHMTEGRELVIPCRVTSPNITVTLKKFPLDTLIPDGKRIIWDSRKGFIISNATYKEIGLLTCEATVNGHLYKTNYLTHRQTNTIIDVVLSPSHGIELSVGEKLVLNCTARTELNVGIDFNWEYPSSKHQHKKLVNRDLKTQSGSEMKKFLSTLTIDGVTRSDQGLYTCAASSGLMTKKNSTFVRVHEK

[2] = biological target: T1, Aflibercept (Eylea); assay: Interferometric Reflectance Imaging Sensor (IRIS); equilibrium IRIS signal on drug spots against VEGF concentration, fitted with the Langmuir-Freundlich isotherm; details: both partners purified

B1: Recombinant human VEGF165 protein (ligand)
chain: APMAEGGGQNHHEVVKFMDVYQRSYCHPIETLVDIFQEYPDEIEYIFKPSCVPLMRCGGCCNDEGLECVPTEESNITMQIMRIKPHQGQHIGEMSFLQHNKCECRPKKDRARQENPCGPCSERRKHLFVQDPQTCKCSCKNTDSRCKARQLELNERTCRCDKPRR
modifications: disulfide-linked homodimer; N-glycosylated (HEK293 expressed); limits are the conventional mature VEGF165 (191-aa precursor minus 26-aa signal) / human IgG1 Fc (C-terminal, dimerizing …)
[1]
  Ka: 1.05e+09 M⁻¹
  Kd: 17.5 nM
[2]
  Ka: 1.5e+08 M⁻¹
  Kd: 66 nM
